In patent US20210332339, “NOVEL NUCLEASE DOMAIN AND USE THEREOF” (HIROSHIMA UNIVERSITY, published 2021):

How the values were obtained:
[1] = target: ZFA36-ND1 (Artificial (ND1 from Bacillus sp. …)); experiment: cell_activity; Cel-I assay CHO-K1, stated for the sites overall; conditions: tags: TGAAARA linker; residues from the E. coli expression version (His/NLS); chain copies: 2 inferred
[2] = target: ZFL1-ND1-DDD (Artificial); experiment: cell_activity; SSA, ZFL1-6bp-ZFA36, paired with ND1-RRR; about 80% with FokI-RRR; alone almost inactive; conditions: R493D/N502D
ZFL1-ND1-DDD (Artificial), sequence (chain, as listed by the source): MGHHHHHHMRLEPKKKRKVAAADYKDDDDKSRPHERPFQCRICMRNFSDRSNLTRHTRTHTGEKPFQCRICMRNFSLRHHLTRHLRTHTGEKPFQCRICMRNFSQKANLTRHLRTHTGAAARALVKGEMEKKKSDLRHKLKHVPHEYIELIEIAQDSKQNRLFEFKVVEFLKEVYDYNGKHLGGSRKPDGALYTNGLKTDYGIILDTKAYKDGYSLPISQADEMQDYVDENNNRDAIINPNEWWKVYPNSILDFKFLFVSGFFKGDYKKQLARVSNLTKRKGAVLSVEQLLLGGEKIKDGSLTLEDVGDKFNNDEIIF
Procedure: (§1) Genes to Cells 15: 875-885). To a 96-well multiwell plate (Iwaki) treated with polylysine coat, 25 μL of serum-free D-MEM culture solution was added, and 6 μL of plasmid solution was mixed. To this, 25.7 μL of a solution containing 0.7 μL of Lipofectamine LTX (Life Technologies) per 25 μL of serum-free D-MEM culture solution was added, and the mixture was allowed to stand at room temperature for 30 minutes. During this period, HEK293T cells were dissociated from a 100 mm tissue culture dish (Iwaki) by trypsin treatment, centrifuged at 1000 rpm for 3 minutes, the supernatant was removed, and the cells were suspended again in 5 mL of the culture solution. A 10 μL cell suspension was dispensed, and the number of cells was counted. […]
(§2) Furthermore, in order to functionally convert the amino acids of the novel nuclease domains corresponding to the amino acids (D483, R487, and N496) involved in the heterodimerization of FokI-ND to the DDD-type, each pSTL-hPGRN_ZFL1-ND was used as a template and a primer pair was used to perform PCR by PrimeSTAR Max. […] Note that the amount of each ZFN plasmid in 7.2 μL of the plasmid solution used in the SSA reporter assay was changed to 120 ng for the target half-site L and 120 ng for the target half-site R. In addition, nuclease activity was measured by the Cel-I assay in the same manner as described in Example 3.

[3] = target: ZFA36-ND1-RRR (Artificial); experiment: cell_activity; SSA, ZFL1-6bp-ZFA36, paired with ND1-DDD; about 60% with FokI-DDD; alone almost inactive; conditions: D489R/N543R
ZFA36-ND1-RRR (Artificial), sequence (chain, as listed by the source): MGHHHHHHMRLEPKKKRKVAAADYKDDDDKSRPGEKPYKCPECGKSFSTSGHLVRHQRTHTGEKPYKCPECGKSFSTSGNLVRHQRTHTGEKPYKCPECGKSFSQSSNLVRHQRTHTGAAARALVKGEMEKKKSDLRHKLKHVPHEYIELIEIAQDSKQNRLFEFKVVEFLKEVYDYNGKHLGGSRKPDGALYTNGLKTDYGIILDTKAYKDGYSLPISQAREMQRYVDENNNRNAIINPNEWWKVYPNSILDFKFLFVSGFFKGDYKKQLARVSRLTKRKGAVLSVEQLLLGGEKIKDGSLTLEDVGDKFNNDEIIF
Procedure: as §1, §2

B1: ZFA36-ZFA36 CHO-K1 3rd site (dsDNA)
DNA 1: ACCATCTTCCTTGATGAAGATGCC
DNA 2: GGCATCTTCATCAAGGAAGATGGT
- binding signal [1]: ~1.5 fold of FokI-ND

B2: ZFL1 half-site (dsDNA)
DNA 1: GAAGGTGAC
DNA 2: GTCACCTTC
- binding signal [2]: ~1.6 fold

B3: ZFA36 half-site (dsDNA)
DNA 1: GAAGATGGT
DNA 2: ACCATCTTC
- binding signal [3]: ~1.6 fold
